US20140274782A1, “AFFINITY REAGENTS AND METHODS FOR DETECTION, PURIFICATION, AND PROTEOMIC ANALYSIS OF METHYLATED PROTEINS” (The Board of Trustees of the Leland Stanford Junior …, priority 2013, published 2014)
One block for each molecule: values may come before it.

Assays:
3×MBT domain of L3MBTL1 = assay: Triple SILAC pull-down, 3xMBT/3xMBTD355N ratio (cytoplasmic, nuclear and chromatin fractions of 293T cells); assay type: binding, human; details: for 3xMBT/D355N UNC Heavy: experiment with UNC0638 in heavy SILAC media; for 3xMBT/D355N UNC Light: experiment with UNC0638 in light SILAC media;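 for all read-outs here: proteins quantified with MaxQuant, requiring at least two unique peptides and quantification in both label directions, normalized to the mean of proteins from a digested loading control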
G9a and GLP = molecular target: T1, G9a and GLP (Homo sapiens, UniProt Q96KQ7+Q9H9B1); assay: Triple SILAC pull-down after UNC0638 treatment of 293T cells, DMSO/UNC0638 ratio of protein captured by 3×MBT; assay type: cell-based; set-up: cells were treated for 24 hours with UNC0638 at 2.5 μM or DMSO vehicle control; endogenous in cells; host or cells: HEK 293T; details: for Relative to UNC0638 UNC Heavy: UNC0638 in heavy SILAC media; for Relative to UNC0638 UNC Light: UNC0638 in light SILAC media; for Relative to UNC0638 Average: average of UNC Light and UNC Heavy experiments; for Candidate G9a/GLP target: reduced association with 3xMBT after UNC0638 treatment;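 for all read-outs here: mass spectrometry (Q-Exactive) SILAC quantitation, DMSO/UNC0638 ratio computed after subtracting 3×MBTD355N mutant pull-down background, only proteins with at least twofold 3×MBT over mutant signal considered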
T1 sequence (Q96KQ7 2-1210 limits assumed): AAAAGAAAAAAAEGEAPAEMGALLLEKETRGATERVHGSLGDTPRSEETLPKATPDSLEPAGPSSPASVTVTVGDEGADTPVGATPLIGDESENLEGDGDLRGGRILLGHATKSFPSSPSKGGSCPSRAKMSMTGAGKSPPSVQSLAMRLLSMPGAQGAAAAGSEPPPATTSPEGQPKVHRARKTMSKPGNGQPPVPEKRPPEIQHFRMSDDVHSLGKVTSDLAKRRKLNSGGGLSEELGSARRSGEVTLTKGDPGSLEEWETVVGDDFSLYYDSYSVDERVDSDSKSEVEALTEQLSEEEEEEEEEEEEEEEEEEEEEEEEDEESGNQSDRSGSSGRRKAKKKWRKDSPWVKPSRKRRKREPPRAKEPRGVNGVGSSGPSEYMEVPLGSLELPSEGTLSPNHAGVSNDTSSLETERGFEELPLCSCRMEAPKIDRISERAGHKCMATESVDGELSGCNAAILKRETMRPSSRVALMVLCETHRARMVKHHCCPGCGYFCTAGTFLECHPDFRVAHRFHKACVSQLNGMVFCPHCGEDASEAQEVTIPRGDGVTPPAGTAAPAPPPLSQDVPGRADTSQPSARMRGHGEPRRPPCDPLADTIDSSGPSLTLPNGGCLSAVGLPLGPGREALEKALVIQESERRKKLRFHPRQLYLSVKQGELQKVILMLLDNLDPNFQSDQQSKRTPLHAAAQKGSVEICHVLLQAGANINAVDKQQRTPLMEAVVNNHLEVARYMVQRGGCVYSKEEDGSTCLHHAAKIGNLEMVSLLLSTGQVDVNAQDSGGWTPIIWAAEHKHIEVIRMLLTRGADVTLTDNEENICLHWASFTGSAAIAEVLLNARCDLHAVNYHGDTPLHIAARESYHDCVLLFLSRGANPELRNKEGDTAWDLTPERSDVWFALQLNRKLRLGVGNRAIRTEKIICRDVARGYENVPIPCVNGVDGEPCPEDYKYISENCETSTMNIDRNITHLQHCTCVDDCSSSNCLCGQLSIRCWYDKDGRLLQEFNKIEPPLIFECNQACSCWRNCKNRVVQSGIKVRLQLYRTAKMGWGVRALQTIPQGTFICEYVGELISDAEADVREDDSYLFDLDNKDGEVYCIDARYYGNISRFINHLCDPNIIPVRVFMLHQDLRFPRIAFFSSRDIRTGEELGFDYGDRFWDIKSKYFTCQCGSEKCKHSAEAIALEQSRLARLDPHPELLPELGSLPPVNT
T1 sequence (Q9H9B1 2-1298 limits assumed): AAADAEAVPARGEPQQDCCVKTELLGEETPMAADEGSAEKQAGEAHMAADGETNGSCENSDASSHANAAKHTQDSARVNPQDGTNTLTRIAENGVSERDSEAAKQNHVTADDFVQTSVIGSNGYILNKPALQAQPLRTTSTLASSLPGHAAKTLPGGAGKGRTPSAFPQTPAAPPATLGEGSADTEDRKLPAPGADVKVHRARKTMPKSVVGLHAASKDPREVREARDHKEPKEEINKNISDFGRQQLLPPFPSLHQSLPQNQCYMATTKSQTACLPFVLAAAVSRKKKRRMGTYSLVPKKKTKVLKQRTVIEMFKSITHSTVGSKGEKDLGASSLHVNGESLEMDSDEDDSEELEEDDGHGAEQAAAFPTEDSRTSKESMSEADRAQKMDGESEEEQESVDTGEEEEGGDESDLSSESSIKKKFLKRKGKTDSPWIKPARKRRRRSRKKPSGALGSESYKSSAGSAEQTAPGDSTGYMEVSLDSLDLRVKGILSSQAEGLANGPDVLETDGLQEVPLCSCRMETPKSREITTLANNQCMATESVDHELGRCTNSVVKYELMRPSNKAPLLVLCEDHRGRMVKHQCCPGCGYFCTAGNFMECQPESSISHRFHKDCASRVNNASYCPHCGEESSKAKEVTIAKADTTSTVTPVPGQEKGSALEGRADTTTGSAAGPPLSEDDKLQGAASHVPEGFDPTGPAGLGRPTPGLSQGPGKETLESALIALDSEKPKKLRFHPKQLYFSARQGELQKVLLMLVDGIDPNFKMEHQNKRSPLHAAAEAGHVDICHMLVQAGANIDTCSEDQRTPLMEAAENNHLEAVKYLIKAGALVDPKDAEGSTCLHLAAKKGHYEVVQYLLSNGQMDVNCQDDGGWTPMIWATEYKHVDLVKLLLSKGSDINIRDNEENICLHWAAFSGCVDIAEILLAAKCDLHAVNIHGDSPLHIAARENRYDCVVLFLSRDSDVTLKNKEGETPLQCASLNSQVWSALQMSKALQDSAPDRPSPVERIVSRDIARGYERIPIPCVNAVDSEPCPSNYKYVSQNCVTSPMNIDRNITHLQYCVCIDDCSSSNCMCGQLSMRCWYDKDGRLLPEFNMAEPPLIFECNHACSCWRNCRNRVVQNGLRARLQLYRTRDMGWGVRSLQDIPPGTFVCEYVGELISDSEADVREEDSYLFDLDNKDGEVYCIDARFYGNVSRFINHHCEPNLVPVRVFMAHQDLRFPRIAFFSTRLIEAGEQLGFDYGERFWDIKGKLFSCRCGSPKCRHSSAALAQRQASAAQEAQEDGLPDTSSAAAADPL
Method: For UNC0638 treatments cells were treated for 24 hours with UNC0638 at 2.5 μM or DMSO vehicle control. One experiment treated cells in light media with UNC0638, the other treated cells in heavy media. Both experiments included cells in medium media treated with DMSO for negative control pull-down with 3×MBTD355N.
UNC0638 treatment experiments used a Q-Exactive mass spectrometer (ThermoFisher Scientific). A 25 cm HPLC column with 3 μm Reliasil (Orochem) was used to separate peptides over a 4 hour gradient from 0 to 75% acetonitrile. Ions were generated using a custom nanospray source flowing at 250 nL/minute. Mass spectrometry settings were 70,000 MS1 resolution, data dependent selection of up to 20 precursor ions per cycle, dynamic exclusion of 30 seconds and isolation window of 2 m/z.
For UNC0638 experiments the treated vs. untreated ratio was determined by subtracting the value from 3×MBTD355N prior to dividing values from the light and heavy channels. Only proteins showing a two-fold signal to background ratio (3×MBT/3×MBTD355N) were evaluated as potential G9a/GLP substrates.

[1] = SILAC ratio 3xMBT vs 3xMBTD355N pull-down, 293T cells, all values in log base 2
[2] = SILAC ratio DMSO relative to UNC0638, pull-down with 3xMBT, all values in log base 2
[3] = SILAC ratio, pull-down 3xMBT vs 3xMBTD355N
[4] = SILAC ratio DMSO/UNC0638 of protein pulled down with 3xMBT

Relative to UNC0638 UNC Heavy (G9a and GLP; [2]): −3.85 log base 2
Relative to UNC0638 UNC Light (G9a and GLP; [2]): 1.78 log base 2
Relative to UNC0638 Average (G9a and GLP; all values in log base 2): −1.03 log base 2
B1: CAND1 (protein, UniProt Q86VP6 2-1230, looked up)
Cullin-associated …: ASASYHISNLLEKMTSSDKDFRFMATNDLMTELQKDSIKLDDDSERKVVKMILKLLEDKNGEVQNLAVKCLGPLVSKVKEYQVETIVDTLCTNMLSDKEQLRDISSIGLKTVIGELPPASSGSALAANVCKKITGRLTSAIAKQEDVSVQLEALDIMADMLSRQGGLLVNFHPSILTCLLPQLTSPRLAVRKRTIIALGHLVMSCGNIVFVDLIEHLLSELSKNDSMSTTRTYIQCIAAISRQAGHRIGEYLEKIIPLVVKFCNVDDDELREYCIQAFESFVRRCPKEVYPHVSTIINICLKYLTYDPNYNYDDEDEDENAMDADGGDDDDQGSDDEYSDDDDMSWKVRRAAAKCLDAVVSTRHEMLPEFYKTVSPALISRFKEREENVKADVFHAYLSLLKQTRPVQSWLCDPDAMEQGETPLTMLQSQVPNIVKALHKQMKEKSVKTRQCCFNMLTELVNVLPGALTQHIPVLVPGIIFSLNDKSSSSNLKIDALSCLYVILCNHSPQVFHPHVQALVPPVVACVGDPFYKITSEALLVTQQLVKVIRPLDQPSSFDATPYIKDLFTCTIKRLKAADIDQEVKERAISCMGQIICNLGDNLGSDLPNTLQIFLERLKNEITRLTTVKALTLIAGSPLKIDLRPVLGEGVPILASFLRKNQRALKLGTLSALDILIKNYSDSLTAAMIDAVLDELPPLISESDMHVSQMAISFLTTLAKVYPSSLSKISGSILNELIGLVRSPLLQGGALSAMLDFFQALVVTGTNNLGYMDLLRMLTGPVYSQSTALTHKQSYYSIAKCVAALTRACPKEGPAVVGQFIQDVKNSRSTDSIRLLALLSLGEVGHHIDLSGQLELKSVILEAFSSPSEEVKSAASYALGSISVGNLPEYLPFVLQEITSQPKRQYLLLHSLKEIISSASVVGLKPYVENIWALLLKHCECAEEGTRNVVAECLGKLTLIDPETLLPRLKGYLISGSSYARSSVVTAVKFTISDHPQPIDPLLKNCIGDFLKTLEDPDLNVRRVALVTFNSAAHNKPSLIRDLLDTVLPHLYNETKVRKELIREVEMGPFKHTVDDGLDIRKAAFECMYTLLDSCLDRLDIFEFLNHVEDGLKDHYDIKMLTFLMLVRLSTLCPSAVLQRLDRLVEPLRATCTTKVKANSVKQEFEKQDELKRSAMRAVAALLTIPEAEKSPLMSEFQSQISSNPELAAIFESIQKDSSSTNLESMDTS
3xMBT/D355N UNC Heavy (3×MBT domain of L3MBTL1; [1]): 3.61 log base 2
3xMBT/D355N UNC Light (3×MBT domain of L3MBTL1; [1]): 3.86 log base 2

Relative to UNC0638 UNC Heavy (G9a and GLP; [4]): 0.57 log base 2
Relative to UNC0638 UNC Light (G9a and GLP; [4]): 0.28 log base 2
Relative to UNC0638 Average (G9a and GLP): 0.43 log base 2
Candidate G9a/GLP target (G9a and GLP): ✓
B3: NUDT16L1 (protein, UniProt Q9BRJ7 1-211, looked up)
Tudor-interacting repair …: MSTAAVPELKQISRVEAMRLGPGWSHSCHAMLYAANPGQLFGRIPMRFSVLMQMRFDGLLGFPGGFVDRRFWSLEDGLNRVLGLGLGCLRLTEADYLSSHLTEGPHRVVAHLYARQLTLEQLHAVEISAVHSRDHGLEVLGLVRVPLYTQKDRVGGFPNFLSNAFVSTAKCQLLFALKVLNMMPEEKLVEALAAATEKQKKALEKLLPASS
3xMBT/D355N UNC Heavy (3×MBT domain of L3MBTL1; [3]): 1.84 log base 2
3xMBT/D355N UNC Light (3×MBT domain of L3MBTL1; [3]): 1.77 log base 2

The next lines start with the molecule.

B2: DDX23 (protein, UniProt Q9BUQ8 1-820, looked up)
Probable ATP-dependent RNA …: MAGELADKKDRDASPSKEERKRSRTPDRERDRDRDRKSSPSKDRKRHRSRDRRRGGSRSRSRSRSKSAERERRHKERERDKERDRNKKDRDRDKDGHRRDKDRKRSSLSPGRGKDFKSRKDRDSKKDEEDEHGDKKPKAQPLSLEELLAKKKAEEEAEAKPKFLSKAEREAEALKRRQQEVEERQRMLEEERKKRKQFQDLGRKMLEDPQERERRERRERMERETNGNEDEEGRQKIREEKDKSKELHAIKERYLGGIKKRRRTRHLNDRKFVFEWDASEDTSIDYNPLYKERHQVQLLGRGFIAGIDLKQQKREQSRFYGDLMEKRRTLEEKEQEEARLRKLRKKEAKQRWDDRHWSQKKLDEMTDRDWRIFREDYSITTKGGKIPNPIRSWKDSSLPPHILEVIDKCGYKEPTPIQRQAIPIGLQNRDIIGVAETGSGKTAAFLIPLLVWITTLPKIDRIEESDQGPYAIILAPTRELAQQIEEETIKFGKPLGIRTVAVIGGISREDQGFRLRMGCEIVIATPGRLIDVLENRYLVLSRCTYVVLDEADRMIDMGFEPDVQKILEHMPVSNQKPDTDEAEDPEKMLANFESGKHKYRQTVMFTATMPPAVERLARSYLRRPAVVYIGSAGKPHERVEQKVFLMSESEKRKKLLAILEQGFDPPIIIFVNQKKGCDVLAKSLEKMGYNACTLHGGKGQEQREFALSNLKAGAKDILVATDVAGRGIDIQDVSMVVNYDMAKNIEDYIHRIGRTGRAGKSGVAITFLTKEDSAVFYELKQAILESPVSSCPPELANHPDAQHKPGTILTKKRREETIFA
3xMBT/D355N UNC Heavy (3×MBT domain of L3MBTL1; [3]): 2.24 log base 2
3xMBT/D355N UNC Light (3×MBT domain of L3MBTL1; [3]): 2.27 log base 2
Relative to UNC0638 UNC Heavy (G9a and GLP; [4]): 0.29 log base 2
Relative to UNC0638 UNC Light (G9a and GLP; [4]): 0.54 log base 2
Relative to UNC0638 Average (G9a and GLP): 0.42 log base 2
Candidate G9a/GLP target (G9a and GLP): ✓

B4: NTHL1 (protein, UniProt P78549 23-304, looked up)
Endonuclease III-like protein …: GCREEPGPLRRREAAAEARKSHSPVKRPRKAQRLRVAYEGSDSEKGEGAEPLKVPVWEPQDWQQQLVNIRAMRNKKDAPVDHLGTEHCYDSSAPPKVRRYQVLLSLMLSSQTKDQVTAGAMQRLRARGLTVDSILQTDDATLGKLIYPVGFWRSKVKYIKQTSAILQQHYGGDIPASVAELVALPGVGPKMAHLAMAVAWGTVSGIAVDTHVHRIANRLRWTKKATKSPEETRAALEEWLPRELWHEINGLLVGFGQQTCLPVHPRCHACLNQALCPAAQGL
3xMBT/D355N UNC Heavy (3×MBT domain of L3MBTL1; [3]): 0.48 log base 2
3xMBT/D355N UNC Light (3×MBT domain of L3MBTL1; [3]): 1.60 log base 2
Relative to UNC0638 UNC Heavy (G9a and GLP; [4]): 0.72 log base 2
Relative to UNC0638 UNC Light (G9a and GLP; [4]): −0.12 log base 2
Relative to UNC0638 Average (G9a and GLP): 0.30 log base 2
